Laboratory results as given in PMC5779224, “Autoinhibition of ankyrin-B/G membrane target bindings by intrinsically disordered segments from the tail regions” (eLife, 2017).
Each block holds one binder with its values, some of them ahead of it.

Assays:
Details in all cases: both partners purified
[1] = molecular target: T1, AnkB_MBD (AnkB ANK repeats only, aa 28–827) (human, UniProt Q01484-2 28-827); test: fluorescence polarisation; PerkinElmer LS-55 fluorimeter with automated polarizer, 25 °C; one-site binding model
T1 construct: ankyrin-B (AnkB), human 220 kDa isoform, residues 28-827: the 24 ANK repeats (MBD), no linker; numbers count on: human 220 kDa AnkB NM_020977.3; Poor quality in 100 mM NaCl buffer; also called AnkB 28–827; source: E. coli BL21 (DE3), purified (Ni2+-NTA, size exclusion)
T1 sequence (looked up): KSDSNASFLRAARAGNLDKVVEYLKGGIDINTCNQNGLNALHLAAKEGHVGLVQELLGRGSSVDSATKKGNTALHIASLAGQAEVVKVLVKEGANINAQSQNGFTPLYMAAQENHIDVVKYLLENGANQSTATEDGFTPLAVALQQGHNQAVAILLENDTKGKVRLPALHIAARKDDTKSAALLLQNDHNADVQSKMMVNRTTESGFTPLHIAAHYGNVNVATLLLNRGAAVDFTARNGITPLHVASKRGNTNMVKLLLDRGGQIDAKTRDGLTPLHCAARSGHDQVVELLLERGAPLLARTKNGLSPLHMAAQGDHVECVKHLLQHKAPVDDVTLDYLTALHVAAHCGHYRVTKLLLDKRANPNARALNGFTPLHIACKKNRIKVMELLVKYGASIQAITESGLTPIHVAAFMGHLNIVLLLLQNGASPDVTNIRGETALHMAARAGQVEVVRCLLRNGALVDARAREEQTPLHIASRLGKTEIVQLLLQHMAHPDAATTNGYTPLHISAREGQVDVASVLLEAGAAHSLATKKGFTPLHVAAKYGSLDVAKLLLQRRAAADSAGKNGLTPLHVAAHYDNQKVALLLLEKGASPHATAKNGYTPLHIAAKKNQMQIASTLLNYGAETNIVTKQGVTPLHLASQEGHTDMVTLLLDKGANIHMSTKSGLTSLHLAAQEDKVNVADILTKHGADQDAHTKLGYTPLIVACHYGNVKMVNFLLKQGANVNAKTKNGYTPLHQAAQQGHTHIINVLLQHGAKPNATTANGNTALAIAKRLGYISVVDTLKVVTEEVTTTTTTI

[2] = molecular target: T2, AnkG 38–855 (AnkG MBD-AI-c protein; MBD + partial AI-c) (rat, UniProt O70511-1 38-855); test: ITC; VP-ITC MicroCal, 25 °C; proteins in 50 mM Tris-HCl pH 7.8, 1 mM DTT, 1 mM EDTA with 100 mM or 500 mM NaCl as required; who was titrated is not told
T2 construct: numbers count on: rat AnkG NM_001033984.1 (MBD-UPA); also called AnkG WT; source: E. coli BL21 (DE3), purified (Ni2+-NTA, size exclusion)
T2 sequence (looked up): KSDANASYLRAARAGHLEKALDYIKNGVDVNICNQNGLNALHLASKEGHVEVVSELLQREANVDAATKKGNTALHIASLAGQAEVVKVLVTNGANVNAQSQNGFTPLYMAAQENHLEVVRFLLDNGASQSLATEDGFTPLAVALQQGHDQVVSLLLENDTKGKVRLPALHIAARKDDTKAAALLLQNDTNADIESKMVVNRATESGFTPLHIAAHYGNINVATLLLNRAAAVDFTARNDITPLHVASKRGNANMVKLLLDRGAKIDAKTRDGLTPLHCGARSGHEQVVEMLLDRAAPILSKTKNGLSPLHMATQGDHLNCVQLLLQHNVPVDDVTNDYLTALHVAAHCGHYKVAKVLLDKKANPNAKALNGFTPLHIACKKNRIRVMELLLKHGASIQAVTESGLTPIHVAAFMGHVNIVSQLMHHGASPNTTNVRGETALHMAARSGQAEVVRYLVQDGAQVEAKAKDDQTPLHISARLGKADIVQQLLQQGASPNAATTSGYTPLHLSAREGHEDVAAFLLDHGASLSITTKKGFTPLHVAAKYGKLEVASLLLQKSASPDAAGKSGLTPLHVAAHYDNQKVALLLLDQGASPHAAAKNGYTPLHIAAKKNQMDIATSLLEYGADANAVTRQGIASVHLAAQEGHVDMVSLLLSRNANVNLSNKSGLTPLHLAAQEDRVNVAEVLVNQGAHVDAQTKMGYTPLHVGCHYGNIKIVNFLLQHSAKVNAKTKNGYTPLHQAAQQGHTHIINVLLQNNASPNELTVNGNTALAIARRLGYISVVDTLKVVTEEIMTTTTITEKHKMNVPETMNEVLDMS

[3] = molecular target: T3, AnkB 28–847 (MBD + partial AI-c) (human, UniProt Q01484-2 28-847); test: as above
T3 construct: ankyrin-B (AnkB), human 220 kDa isoform, residues 28-847: MBD and a short 20-residue linker; numbers count on: human 220 kDa AnkB NM_020977.3; also called extended MBD with a short 20-residue linker; source: E. coli BL21 (DE3), purified (Ni2+-NTA, size exclusion)
T3 sequence (looked up): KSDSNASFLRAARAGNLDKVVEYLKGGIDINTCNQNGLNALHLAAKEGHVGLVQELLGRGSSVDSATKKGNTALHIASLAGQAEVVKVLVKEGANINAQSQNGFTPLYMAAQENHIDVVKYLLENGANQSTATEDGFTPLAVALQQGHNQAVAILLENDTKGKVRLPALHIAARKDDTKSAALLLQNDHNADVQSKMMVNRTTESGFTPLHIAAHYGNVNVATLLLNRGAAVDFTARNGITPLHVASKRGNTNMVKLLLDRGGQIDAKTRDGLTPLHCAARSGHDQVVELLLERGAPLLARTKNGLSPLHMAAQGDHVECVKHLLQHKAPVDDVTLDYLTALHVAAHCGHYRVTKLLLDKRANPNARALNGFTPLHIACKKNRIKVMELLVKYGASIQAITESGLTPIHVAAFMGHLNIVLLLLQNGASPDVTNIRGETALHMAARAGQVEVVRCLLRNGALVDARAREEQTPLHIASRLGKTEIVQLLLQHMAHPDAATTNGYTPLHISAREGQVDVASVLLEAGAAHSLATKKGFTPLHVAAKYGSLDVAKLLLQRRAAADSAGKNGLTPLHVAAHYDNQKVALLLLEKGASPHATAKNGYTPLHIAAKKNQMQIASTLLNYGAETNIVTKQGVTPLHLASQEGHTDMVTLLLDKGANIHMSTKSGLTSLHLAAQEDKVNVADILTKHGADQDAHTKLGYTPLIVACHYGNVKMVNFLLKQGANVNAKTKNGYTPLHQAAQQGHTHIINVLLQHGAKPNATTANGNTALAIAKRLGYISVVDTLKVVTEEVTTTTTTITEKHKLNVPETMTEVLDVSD

[4] = molecular target: T4, AnkG 38–903 (MBD + AI-c + AI-b) (rat, UniProt O70511-1 38-903); test: as above
T4 construct: numbers count on: rat AnkG NM_001033984.1 (MBD-UPA); also called extended AnkG MBD; source: E. coli BL21 (DE3), purified (Ni2+-NTA, size exclusion)
T4 sequence (looked up): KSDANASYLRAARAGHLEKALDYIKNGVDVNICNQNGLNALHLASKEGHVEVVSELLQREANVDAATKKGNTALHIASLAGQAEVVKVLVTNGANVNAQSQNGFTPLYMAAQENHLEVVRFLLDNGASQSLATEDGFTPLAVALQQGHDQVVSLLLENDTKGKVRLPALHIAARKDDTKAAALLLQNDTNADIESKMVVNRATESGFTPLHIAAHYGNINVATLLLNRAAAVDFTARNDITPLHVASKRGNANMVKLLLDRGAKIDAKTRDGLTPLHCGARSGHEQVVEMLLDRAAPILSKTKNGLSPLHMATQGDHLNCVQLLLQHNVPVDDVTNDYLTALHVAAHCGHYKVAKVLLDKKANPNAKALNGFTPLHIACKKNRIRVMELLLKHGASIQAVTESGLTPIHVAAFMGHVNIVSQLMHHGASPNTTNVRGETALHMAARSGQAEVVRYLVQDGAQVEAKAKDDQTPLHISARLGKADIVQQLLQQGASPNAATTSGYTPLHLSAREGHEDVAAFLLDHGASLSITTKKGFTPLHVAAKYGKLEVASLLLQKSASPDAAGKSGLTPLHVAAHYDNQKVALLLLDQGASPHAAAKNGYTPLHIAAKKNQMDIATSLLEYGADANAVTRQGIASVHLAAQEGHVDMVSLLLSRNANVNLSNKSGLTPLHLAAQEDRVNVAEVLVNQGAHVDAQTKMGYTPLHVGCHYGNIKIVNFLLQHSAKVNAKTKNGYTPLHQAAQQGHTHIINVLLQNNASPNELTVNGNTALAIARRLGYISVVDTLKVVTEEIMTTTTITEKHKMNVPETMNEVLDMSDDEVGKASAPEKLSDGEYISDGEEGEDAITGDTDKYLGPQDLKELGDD

[5] = molecular target: T5, AnkB_R13-24 (C-terminal 12 ANK repeats of AnkB) (human, UniProt Q01484-2 430-827); test: crystal structure; one natural chain AnkB 430-873; the linker folds back on the repeats of the same chain; crystals grown at 16 °C
T5 construct: numbers count on: human 220 kDa AnkB NM_020977.3; also called AnkB C-terminal 12 repeats; source: E. coli BL21 (DE3), purified (Ni2+-NTA, size exclusion)
T5 sequence (looked up): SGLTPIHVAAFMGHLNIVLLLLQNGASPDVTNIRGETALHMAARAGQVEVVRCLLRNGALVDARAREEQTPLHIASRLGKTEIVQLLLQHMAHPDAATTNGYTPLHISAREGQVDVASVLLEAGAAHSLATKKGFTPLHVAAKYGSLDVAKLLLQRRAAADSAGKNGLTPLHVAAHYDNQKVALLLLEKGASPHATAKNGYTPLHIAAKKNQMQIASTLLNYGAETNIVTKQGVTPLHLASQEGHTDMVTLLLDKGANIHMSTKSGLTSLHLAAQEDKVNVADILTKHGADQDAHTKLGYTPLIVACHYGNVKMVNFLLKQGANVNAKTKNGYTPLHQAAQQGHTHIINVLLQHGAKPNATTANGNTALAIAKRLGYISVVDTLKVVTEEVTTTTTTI

B1: AnkB_AI-a peptide (aa 1623–1635) (peptide, UniProt Q01484-2 1623-1635, looked up)
peptide: HPPIVSEEDISVG
notes: ankyrin-B (AnkB), human 220 kDa isoform, 13-residue AI-a segment of the C-terminal tail, residues 1623-1635; numbers count on: human 220 kDa AnkB NM_020977.3; The text says a peptide encompassing the AI-a segment, so it may be longer than 1623-1635; The fluorescent label of the polarisation assay is not described here (protocol of Wang et al., 2014)
- Kd [1]: ~7.3 µM

B5: AnkG long linker (aa 837–920; AI-c + AI-b) (domain or fragment, rat, UniProt O70511-1 837-920, looked up)
chain: TEKHKMNVPETMNEVLDMSDDEVGKASAPEKLSDGEYISDGEEGEDAITGDTDKYLGPQDLKELGDDSLPAEGYVGFSLGARSA
notes: numbers count on: rat AnkG NM_001033984.1 (MBD-UPA); source: E. coli BL21 (DE3), purified (Ni2+-NTA, size exclusion)
- binding result [2]: binds

B6: AnkB_AI-b (aa 865–896) (domain or fragment, human, UniProt Q01484-2 865-896, looked up)
chain: EDLKELGDDSLPSSQFLDGMNYLRYSLEGGRS
notes: numbers count on: human 220 kDa AnkB NM_020977.3; also called 32-aa fragment; source: E. coli BL21 (DE3), purified (Ni2+-NTA, size exclusion)
- binding result [3]: binds

Further lines, results first:

- binding result [2]: binds
B2: AnkG linker ΔAI-c (aa 861–920) (domain or fragment, rat, UniProt O70511-1 861-920, looked up)
chain: KASAPEKLSDGEYISDGEEGEDAITGDTDKYLGPQDLKELGDDSLPAEGYVGFSLGARSA
notes: ankyrin-G (AnkG), rat, linker residues 861-920, lacking AI-c; numbers count on: rat AnkG NM_001033984.1 (MBD-UPA); also called AnkG 861–920; shorter version of the linker; source: E. coli BL21 (DE3), purified (Ni2+-NTA, size exclusion)

- binding result [2]: binds
- binding result [3]: binds
- binding result [4]: binds
B3: E-cadherin (aa 734–884) (domain or fragment)
chain: not shown
notes: source: E. coli BL21 (DE3), purified (Ni2+-NTA, size exclusion)

- binding result [5]: binds
B4: AnkB 46-residue linker after the ANK repeats (aa 828–873, holds AI-c), as crystallised (domain or fragment, human, UniProt Q01484-2 828-873, looked up)
chain: TEKHKLNVPETMTEVLDVSDEEGDDTMTGDGGEYLRPEDLKELGDD
notes: Thr828 to Asp847 defined in the map; numbers count on: human 220 kDa AnkB NM_020977.3; Contiguous with m23 on one natural chain; also called folded back linker; source: E. coli BL21 (DE3), purified (Ni2+-NTA, size exclusion)
